In test [1] the target is T1, MDM2 (In-house, 41 kD) (UniProt Q00987 1-125, limits assumed).
T1 construct: Only 'In-house, 41 kD' is said of the protein used in the fluorescence polarization assays; also called HDM2
Nature of the test: competitive fluorescence polarization on MDM2 against FAM-labeled linear peptide; grade, scale in paragraph 462.

Test [2] has as its target T2, MDMX (In-house, 40 kD) (UniProt O15151 1-120, limits assumed).
T2 construct: Only 'In-house, 40 kD' is said of the protein used in the fluorescence polarization assays; also called MDM4
T2 sequence (looked up): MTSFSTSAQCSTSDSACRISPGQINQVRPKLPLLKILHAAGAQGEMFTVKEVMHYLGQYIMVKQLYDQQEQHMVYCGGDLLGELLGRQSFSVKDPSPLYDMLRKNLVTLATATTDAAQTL
Nature of the test: competitive fluorescence polarization on MDMX against FAM-labeled linear peptide; grade, scale in paragraph 462.

Test [3] addresses T3, MDMX (In-house, 40 kD) (UniProt O15151 1-120, limits assumed).
T3 construct: Only 'MDMX (In-house, 40 kD)' is said of the protein in the FP assays; also called MDM4
T3 sequence (looked up): T2 sequence (looked up)
Nature of the test: competitive FP vs FAM labeled linear peptide; column Ki (MDMX); + = >1000 nM by the table's scale.

The target in test [4] is T3, MDMX (In-house, 40 kD). Nature of the test: competitive FP vs FAM labeled linear peptide; column IC50 (MDMX); + = >1000 nM by the table's scale.
In test [5] the target is T4, MDMX (In-house, 40 kD) (UniProt O15151 1-120, limits assumed).
T4 construct: The construct used is unknown; also called MDM4
T4 sequence (looked up): T2 sequence (looked up)
Nature of the test: IC50 (MDMX) grade; competitive FP vs FAM-labeled linear peptide; + = >1000 nM.

In test [6] the target is T4, MDMX (In-house, 40 kD). The test can be described thus: Ki (MDMX) grade; competitive FP vs FAM-labeled linear peptide; + = >1000 nM.
In test [7] the target is T5, MDMX (In-house, 40 kD) (UniProt O15151 1-120, limits assumed).
T5 construct: Construct not described beyond 'In-house, 40 kD'; also called MDM4
T5 sequence (looked up): T2 sequence (looked up)
Nature of the test: FP competition on MDMX vs FAM-labeled linear peptide; graded Ki, + = >1000 nM.

Test [8] addresses T5, MDMX (In-house, 40 kD). Nature of the test: FP competition on MDMX vs FAM-labeled linear peptide; graded IC50, + = >1000 nM.
In test [9] the target is MDM2 (In-house, 41 kD) (UniProt Q00987). Nature of the test: competitive fluorescence polarization on MDM2 against FAM-labeled linear peptide; grade, scale in paragraph 462.
Test [10] addresses T6, MDMX (In-house, 40 kD) (UniProt O15151).
T6 sequence (looked up): T2 sequence (looked up)
The test can be described thus: competitive fluorescence polarization on MDMX against FAM-labeled linear peptide; grade, scale in paragraph 462.

Bridges are numbered along the chain shown (N, C = ends). [ ]: non-standard residue; d: D form. The star is where a group is joined. 5‑TAMRA = CN(C)c1ccc2c(-c3ccc(C(=O)*)cc3C(=O)[O-])c3ccc(N(C)C)cc3[o+]c2c1; pY = N[C@@H](Cc1ccc(OP(=O)(O)O)cc1)C(=O)O; NMeW = CN[C@@H](Cc1c[nH]c2ccccc12)C(=O)O; NMeY = CN[C@@H](Cc1ccc(O)cc1)C(=O)O; R8 = C=CCCCCCC[C@@](C)(N)C(=O)O; Cba = N[C@@H](CC1CCC1)C(=O)O; hLeu = CC(C)CC[C@H](N)C(=O)O; S5 = C=CCCC[C@](C)(N)C(=O)O; Decac = not defined here; Nle = CCCC[C@H](N)C(=O)O; βAla = NCCC(=O)O

T1 sequence (Q00987 1-125 limits assumed): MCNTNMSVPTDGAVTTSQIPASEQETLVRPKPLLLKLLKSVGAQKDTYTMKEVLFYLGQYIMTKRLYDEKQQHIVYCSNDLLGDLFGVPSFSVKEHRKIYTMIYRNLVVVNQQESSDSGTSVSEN
MDM2 (In-house, 41 kD) (UniProt Q00987), sequence (Q00987 1-125 limits assumed): as above

On to Ac-LTF[R8]EYWALL[S5]AAAAA[dA]-NH2 (staple 4-11, stapled peptidomimetic macrocycle) [SP608, Ac-LTF$r8EYWALL$AAAAAa-NH2], for which the Ki in the test with MDM2 (In-house, 41 kD) [1] was at most 10 nM.

With Ac-LTF[R8]QYWAQL[S5]AAAAA[dA]-NH2 (staple 4-11, stapled peptidomimetic macrocycle) [SP600, Ac-LTF$r8QYWAQL$AAAAAa-NH2], the inhibitory constant (Ki) with MDMX (In-house, 40 kD) [2] is at most 10 nM; with MDM2 (In-house, 41 kD) [1] it was at most 10 nM.

B1: SP712, Ac-LTF$r8HYWAQCba$SAA-NH2 (iso2) (peptide)
peptide: Ac-LTF[R8]HYWAQ[Cba][S5]SAA-NH2
modifications: staple 4-11; also: single isomer iso2
notes: stapled peptidomimetic macrocycle, isomer iso2
Regarding B1, the inhibition constant Ki with MDMX (In-house, 40 kD) [2] was at most 10 nM; with MDM2 (In-house, 41 kD) [1] it was at most 10 nM.

B2: SP713, Ac-LTF$r8SYWAQCba$SAA-NH2 (iso2) (peptide)
peptide: Ac-LTF[R8]SYWAQ[Cba][S5]SAA-NH2
modifications: staple 4-11; also: single isomer iso2
notes: as for B1
Take B2: the inhibition constant (Ki) with MDMX (In-house, 40 kD) [2] was at most 10 nM; with MDM2 (In-house, 41 kD) [1], at most 10 nM.

B3: SP716, Ac-LTF$r8EYWAQCba$AAA-NH2 (iso2) (peptide)
peptide: Ac-LTF[R8]EYWAQ[Cba][S5]AAA-NH2
modifications: staple 4-11; not fully specified
notes: as for B1
Consider B3, for which the Ki in the test with MDMX (In-house, 40 kD) [2] was at most 10 nM; with MDM2 (In-house, 41 kD) [1], at most 10 nM.

B4: SP386 (peptide)
peptide: Ac-LTF[R8]AY[NMeW]AQL[S5]AA[Nle]A-NH2
modifications: staple 4-11; not fully specified
notes: Stapled peptidomimetic macrocycle, single isomer iso2; also called Ac-LTF$r8AYNmWAQL$AANleA-NH2
On to B4, for which the Ki in the test with MDMX (In-house, 40 kD) [3] is above 1000 nM. In the test with MDMX (In-house, 40 kD) [4], the IC50 was above 1000 nM.

B5: SP686, 5-TAMRA-BaLTF$r8EYWAQCba$SAA-NH2 (peptide)
peptide: {5‑TAMRA}-[βAla]LTF[R8]EYWAQ[Cba][S5]SAA-NH2
modifications: staple 5-12
SMILES: CC(C)C[C@H](NC(=O)CCNC(=O)c1ccc(-c2c3ccc(N(C)C)cc3[o+]c3cc(N(C)C)ccc23)c(C(=O)[O-])c1)C(=O)N[C@H](C(=O)N[C@@H](Cc1ccccc1)C(=O)N[C@]1(C)CCCCCCC=CCCC[C@@](C)(C(=O)N[C@@H](CO)C(=O)N[C@@H](C)C(=O)N[C@@H](C)C(N)=O)NC(=O)[C@H](CC2CCC2)NC(=O)[C@H](CCC(N)=O)NC(=O)[C@H](C)NC(=O)[C@H](Cc2c[nH]c3ccccc23)NC(=O)[C@H](Cc2ccc(O)cc2)NC(=O)[C@H](CCC(=O)O)NC1=O)[C@@H](C)O
notes: stapled peptidomimetic macrocycle with fluorescent label
B5 showed an inhibitory constant (Ki) with MDM2 (In-house, 41 kD) [1] of at most 10 nM.

B6: SP384 (peptide)
peptide: Ac-LTF[R8]A[NMeY]WAQL[S5]AA[Nle]A-NH2
modifications: staple 4-11; not fully specified
notes: Stapled peptidomimetic macrocycle, single isomer iso2; also called Ac-LTF$r8ANmYWAQL$AANleA-NH2
For the molecule B6, the inhibitory constant (Ki) with MDMX (In-house, 40 kD) [3] is above 1000 nM. In addition, the half-maximal inhibitory concentration (IC50) with MDMX (In-house, 40 kD) [4] is above 1000 nM.

B7: SP282 (peptide)
peptide: Decac-LTF[R8]EYWAQ[hLeu][S5]SAA-NH2
modifications: staple 4-11; reading uncertain
notes: Peptidomimetic macrocycle (stapled p53-derived peptide)
In the case of B7, the half-maximal inhibitory concentration (IC50) with MDMX (In-house, 40 kD) [5] was above 1000 nM. The Ki with MDMX (In-house, 40 kD) [6] is above 1000 nM.

B8: SP323 (peptide)
peptide: Ac-LTF[R8]AYWAQ[hLeu][S5]AA[Nle]AA-NH2
modifications: staple 4-11
notes: as for B7
For B8, the IC50 with MDMX (In-house, 40 kD) [5] is above 1000 nM.

Regarding Ac-LTA[R8]EYWAQ[Cba][S5]SAA-NH2 (staple 4-11) [SP252, Ac-LTA$r8EYWAQCba$SAA-NH2], the inhibitory constant (Ki) with MDMX (In-house, 40 kD) [7] was above 1000 nM. Further, the IC50 in the test with MDMX (In-house, 40 kD) [8] is above 1000 nM.

B9: SP433, Ac-LTF$r8EYWCou7QCba$SAA-NH2 (peptide)
peptide: LTFAEYWXQAASAA
modifications: not fully specified; N-terminal acetyl; $r8 (alpha-Me R8-octenyl-alanine) at 4 crosslinked to $ (alpha-Me S5-pentenyl-alanine) at 11; Cou7 at 8 (structure given only as a drawing); Cba (cyclobutyl alanine) at 10; C-terminal amide
notes: stapled peptidomimetic macrocycle
In the test with MDM2 (In-house, 41 kD) [1], B9 gave an inhibition constant (Ki) of at most 10 nM. Take Ac-LTF[R8]E[pY]WAQL[S5]AAAAA[dA]-NH2 (staple 4-11) [SP615, Ac-LTF$r8EpYWAQL$AAAAAa-NH2]: the Ki with MDM2 (In-house, 41 kD) [9] was below 10 nM; with MDMX (In-house, 40 kD) [10], below 10 nM. Consider Ac-LTF[R8]EYWAQ[Cba][S5]S-NH2 (staple 4-11, stapled peptidomimetic macrocycle) [SP595, Ac-LTF$r8EYWAQCba$S-NH2], for which, in the test with MDM2 (In-house, 41 kD) [1], the inhibition constant Ki is above 1000 nM.

B10: SP612, Ac-LTF$r8EYWACitL$AAAAAa-NH2 (peptide)
peptide: LTFAEYWAXLAAAAAAA
modifications: not fully specified; N-terminal acetyl; $r8 (alpha-Me R8-octenyl-alanine) at 4 crosslinked to $ (alpha-Me S5-pentenyl-alanine) at 11; Cit (citrulline) at 9; D-alanine at 17; C-terminal amide
notes: as for B9
The molecule B10 gave an inhibition constant Ki with MDM2 (In-house, 41 kD) [1] of at most 10 nM.

For the origin of these results see US20170281720A1 (published 2017).
